Results on four molecules are retold here after patent US20180282719A1 (published 2018).

In test [1] the target is T1, human IL-6 (Toray) (human, UniProt P05231 30-212).
T1 construct: also called human interleukin-6
The test is described as follows: SPR Biacore T100, antibody on protein A/G chip, human IL-6 analyte, 37 C, ratio of pH 5.5 to pH 7.4. The procedure:
(§1) Kinetic analysis of antigen-antibody reactions at pH 5.5 and pH 7.4 was carried out using a Biacore T100™ surface plasmon resonance system (GE Healthcare) for the three types of antibodies prepared as mentioned above: Anti-IL6 wild type, Anti-IL6 clone 1, and Anti-IL-6 clone 2 (buffer: DPBS(−) (pH 7.4 or pH 5.5), 150 mM NaCl). The antibodies were bound to a sensor chip on which recomb-protein A/G (Pierce) was immobilized by amine coupling, and then human IL-6 (Toray) adjusted to an appropriate concentration was injected on the chip as an analyte. All the measurements were carried out at 37° C. Association rate constants kₐ (1/Ms) and dissociation rate constants kd (1/s) were calculated using Biacore T100™ Evaluation Software (GE Healthcare), and dissociation constants KD (M) were calculated based on those values (Table 14). Furthermore, the ratio of affinity at pH 5.5 and pH 7.4 was calculated for each clone to evaluate the pH-dependent binding.
In general terms: SPR reads the build-up and loss of mass on a sensor chip optically.

Test [2] has as its target T1, human IL-6 (Toray). The test is described as follows: SPR Biacore T100, antibody on protein A/G chip, human IL-6 analyte, pH 5.5, 37 C. The method, then: as §1
The target in test [3] is T1, human IL-6 (Toray). Nature of the test: SPR Biacore T100, antibody on protein A/G chip, human IL-6 analyte, pH 7.4, 37 C. The method, then: as §1
Test [4] concerns the target T1, human IL-6 (Toray). The test is described as follows: SPR Biacore T100, antibody on protein A/G chip, human IL-6 analyte, 37 C. The procedure: as §1
Test [5] addresses T2, recombinant soluble human IL-6 receptor (SR344) (human, UniProt P08887 20-344, biotinylated (sites not given) where immobilized via streptavidin or used in phage ELISA).
T2 construct: also called soluble IL-6 receptor; membrane-type IL-6 receptor (when biotinylated and immobilized on the chip)
T2 sequence (looked up): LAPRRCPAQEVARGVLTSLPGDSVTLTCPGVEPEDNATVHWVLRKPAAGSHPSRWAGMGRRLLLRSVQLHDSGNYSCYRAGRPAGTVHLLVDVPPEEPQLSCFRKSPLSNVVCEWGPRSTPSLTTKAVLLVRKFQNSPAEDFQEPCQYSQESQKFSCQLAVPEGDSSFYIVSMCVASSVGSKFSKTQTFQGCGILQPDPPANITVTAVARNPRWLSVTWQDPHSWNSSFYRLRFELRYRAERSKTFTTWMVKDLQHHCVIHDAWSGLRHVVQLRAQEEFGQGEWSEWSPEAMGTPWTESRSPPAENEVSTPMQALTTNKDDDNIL
Nature of the test: SPR Biacore T100, biotinylated SR344 on streptavidin chip (model of membrane-type IL-6 receptor), antibody as analyte, bound at pH 7.4, dissociation at pH 7.4, 37 C. The procedure:
(§2) Binding to the membrane-type IL-6 receptor was evaluated by evaluating binding to the IL-6 receptor immobilized on a sensor chip. SR344 was biotinylated in accordance with a method known among persons with ordinary skill in the art, and the biotinylated SR344 was immobilized on the sensor chip via streptavidin using the affinity between streptavidin and biotin. All the measurements were carried out at 37° C. The mobile phase buffer was 10 mM MES (pH 5.8), 150 mM NaCl and 0.05% TWEEN® 20 (polyoxyethelene sorbitan monolaurate).
(§3) The pH-dependently-binding clones were injected under the condition of pH 7.4 to allow them to bind to SR344, and then, the pH-dependent dissociation of each clone at the pH of the mobile phase, pH 5.8, was observed. The results are shown in FIG. 21 (results for Fv1-M71, Fv1-M73, Fv3-M71, and Fv3-M73 are shown in FIG. 21, while results for other clones are shown in FIGS. 17 and 19). Analyses were carried out in the same manner as in Example 10 and the pH dependencies of the dissociation rate constants of all of the eleven types of clones are shown in Table 12.

Test [6] deals with T2, recombinant soluble human IL-6 receptor …. The test is described as follows: SPR Biacore T100, biotinylated SR344 on streptavidin chip (model of membrane-type IL-6 receptor), antibody 0.25 ug/mL as analyte, bound at pH 7.4, dissociation at pH 5.8, 37 C. The procedure:
as §2, §3

The target is the same in test [7]. Nature of the test: SPR Biacore T100, antibody captured by anti-IgG gamma chain F(ab)2, SR344 analyte, pH 7.4, 37 C. The procedure:
(§4) Kinetic analyses of antigen-antibody reactions at pH 7.4 were carried out on the four types of antibodies, i.e., the humanized PM1 antibody (wild type: WT), and […], H3pI/L73-IgG1, Fv2-IgG1, and Fv4-IgG1 constructed in Examples 2 and 10, by using a Biacore T100™ surface plasmon resonance system (GE Healthcare) (buffer: 10 mM MES (pH 7.4), 150 mM NaCl, 0.05% TWEEN® 20 (polyoxyethelene sorbitan monolaurate)). Each antibody was bound on a sensor chip on which an anti-IgG γ chain specific F(ab)₂ (Pierce) was immobilized by amine coupling, and then, SR344 adjusted to a concentration of 9.8 to 40 nM was injected thereto as an analyte. The association to and dissociation from SR344 were observed on a real-time basis for the pH-dependent-binding clones. All the measurements were carried out at 37° C. Association rate constants kₐ (1/Ms) and dissociation rate constants kd (1/s) were calculated using Biacore T100™ Evaluation Software (GE Healthcare), and dissociation constants KD (M) were calculated on the basis of those values (Table 7).

For test [8] the target is unchanged. Nature of the test: SPR Biacore T100, biotinylated SR344 on streptavidin chip (model of membrane-type IL-6 receptor), antibody 0.25 ug/mL as analyte, 37 C. The method, then: as §2, §3
The target is the same in test [9]. Nature of the test: SPR Biacore T100, biotinylated SR344 on streptavidin chip (model of membrane-type IL-6 receptor), antibody as analyte, 37 C. The procedure: as §2, §3
The target is the same in test [10]. Nature of the test: SPR Biacore T100, antibody captured by anti-IgG gamma chain F(ab)2, SR344 analyte, pH 7.4, 37 C. The method, then: as §4
The association to and dissociation from SR344 were observed on a real-time basis using the same method as Example 10 for the eleven types of antibodies, humanized PM1 antibody (wild type: WT) and H3pI/L73-IgG1, Fv1-M71, Fv1-M73, Fv2-IgG1, Fv3-M71, Fv3-M73, Fv4-IgG1, Fv4-IgG2, Fv4-M58, and Fv4-M73, constructed as described above. The association rate constants kₐ (1/Ms) and dissociation rate constants kd. (1/s) were calculated by analysis in the same manner, and the dissociation constants KD (M) were calculated on the basis of those values (Table 11).
This is another data set of the same source.

The target is the same in test [11]. The test is described as follows: SPR Biacore T100, biotinylated SR344 on streptavidin chip (model of membrane-type IL-6 receptor), antibody as analyte, bound at pH 7.4, dissociation at pH 5.8, 37 C. The procedure:
as §2, §3

Test [12] shares this target. Nature of the test: SPR Biacore T100, biotinylated SR344 on streptavidin chip (model of membrane-type IL-6 receptor), antibody 0.25 ug/mL as analyte, bound at pH 7.4, dissociation at pH 7.4, 37 C.

Where two headings read alike, the source gives them in different places.

Usually Kd stands for the concentration at which binding is half-saturated. The term koff denotes a measure of how fast the partners let go of each other. Broadly, the kon is a measure of how fast the partners come together.

B1: Anti-IL6 wild type (antibody, human IgG1, kappa, V domains shown)
VH: EVQLVESGGKLLKPGGSLKLSCAASGFTFSSFAMSWFRQSPEKRLEWVAEISSGGSYTYYPDTVTGRFTISRDNAKNTLYLEMSSLRSEDTAMYYCARGLWGYYALDYWGQGTSVTVSS
VL: QIVLIQSPAIMSASPGEKVTMTCSASSSVSYMYWYQQKPGSSPRLLIYDTSNLASGVPVRFSGSGSGTSYSLTISRMEAEDAATYYCQQWSGYPYTFGGGTKLEIKR
notes: Antibody of WO 2004/039826, rebuilt and tested here; also called anti-IL-6 antibody including the H chain (WT) and L chain (WT)
Turning to B1, the “KD (pH 5.5)/KD (pH 7.4)” value in the test with human IL-6 (Toray) [1] is 0.8. In the test with human IL-6 (Toray) [2], this molecule gave a Kd of 0.0161 nM, an off-rate constant (koff) of 0.000245 s⁻¹ and a kon of 1.52e+07 M⁻¹ s⁻¹. In the test with human IL-6 (Toray) [3], this molecule yielded a Kd of 0.0191 nM, an off-rate constant (koff) of 0.000391 s⁻¹ and a kon of 2.05e+07 M⁻¹ s⁻¹.

B2: Anti-IL-6 clone 2 (antibody, human IgG1, kappa, V domains shown)
VH: EVQLVESGGKLLKPGGSLKLSCAASGFTFSSHAMSWFRQSPEKRLEWVAEISSGGSYTYHPHTVTGRFTISRDNAKNTLYLEMSSLRSEDTAMYYCARGLWGHYALDYWGQGTSVTVSS
VL: QIVLIQSPAIMSASPGEKVTMTCSASSSVSYMYWYQQKPGSSPRLLIYDTSHHASGVPVRFSGSGSGTSYSLTISRMEAEDAATYYCQHWSGHPYTFGGGTKLEIKR
notes: H chain (c1) / L chain (c2)
For the molecule B2, the “pH-dependent binding ability relative to WT” value with human IL-6 (Toray) [4] is above 10 fold. In the test with human IL-6 (Toray) [1], the “KD (pH 5.5)/KD (pH 7.4)” value came to 13.5. Moreover, in the test with human IL-6 (Toray) [2], binding was characterised by a dissociation constant (Kd) of 3.98 nM, the off-rate constant (koff) amounted to 0.011 s⁻¹ and the kon was 2.76e+06 M⁻¹ s⁻¹. Besides, in the test with human IL-6 (Toray) [3], the affinity, expressed as Kd, was 0.294 nM; the koff stood at 0.00263 s⁻¹; the association rate constant (kon) was 8.96e+06 M⁻¹ s⁻¹.

B3: Anti-IL6 clone 1 (antibody, human IgG1, kappa, V domains shown)
VH: EVQLVESGGKLLKPGGSLKLSCAASGFTFSSHAMSWFRQSPEKRLEWVAEISSGGSYTYHPHTVTGRFTISRDNAKNTLYLEMSSLRSEDTAMYYCARGLWGHYALDYWGQGTSVTVSS
VL: QIVLIQSPAIMSASPGEKVTMTCSASSSVSYMYWYQQKPGSSPRLLIYDTSNHASGVPVRFSGSGSGTSYSLTISRMEAEDAATYYCQHWSGHPYTFGGGTKLEIKR
notes: H chain (c1) / L chain (c1)
Turning to B3, in the test with human IL-6 (Toray) [4], the “pH-dependent binding ability relative to WT” value is above 10 fold. Also, the “KD (pH 5.5)/KD (pH 7.4)” value with human IL-6 (Toray) [1] is 10.3. Also, in the test with human IL-6 (Toray) [2], the Kd is 4.52 nM, the koff was determined as 0.00926 s⁻¹ and the on-rate constant (kon) stood at 2.05e+06 M⁻¹ s⁻¹. In the test with human IL-6 (Toray) [3], this molecule gave a Kd of 0.438 nM, an off-rate (koff) of 0.00471 s⁻¹ and an association rate constant (kon) of 1.07e+07 M⁻¹ s⁻¹.

B4: Fv2-IgG1 (antibody, V domains shown)
VH: QVQLQESGPGLVKPSETLSLTCAVSGYSISHDHAWSWVRQPPGEGLEWIGHISYSGITNYNPHLQDRVTISRDTSKNQFSLKLSSVTAADTAAYYCARFLARITAHDHWGEGTLVTVSS
VL: DIQMTQSPSSLSASVGDSVTITCQASQDISSHLNWYQQKPGKAPELLIYYGSHLHSGVPSRFSGSGSGTDFTFTISSLEAEDAATYYCGQGNRLPYTFGQGTKVEIE
notes: VH1-IgG1 as H chain and L82 as L chain
Regarding B4, the dissociation rate constant (koff) in test [5] was 0.00034 s⁻¹; in test [6], 0.0024 s⁻¹; in [7], 0.00077 s⁻¹; in [10], 0.00077 s⁻¹; in [11] it was 0.0024 s⁻¹; in test [12], 0.00034 s⁻¹. For the same molecule, the dissociation constant (Kd) in [7] and in [10] was 2 nM each time. The on-rate constant (kon) in test [7] and in test [10] was 390000 M⁻¹ s⁻¹ each time. The “kd (pH 5.8)/kd (pH 7.4)” value in [8] and in test [9] was 7.18 throughout.
